The target of assay [1] is T1, rat MAG-Fc fusion protein (R&D systems; 538-MG) (rat; human, UniProt P07722 20-516).
T1 construct: Bought reagent; not shown: human Fc
T1 sequence (looked up): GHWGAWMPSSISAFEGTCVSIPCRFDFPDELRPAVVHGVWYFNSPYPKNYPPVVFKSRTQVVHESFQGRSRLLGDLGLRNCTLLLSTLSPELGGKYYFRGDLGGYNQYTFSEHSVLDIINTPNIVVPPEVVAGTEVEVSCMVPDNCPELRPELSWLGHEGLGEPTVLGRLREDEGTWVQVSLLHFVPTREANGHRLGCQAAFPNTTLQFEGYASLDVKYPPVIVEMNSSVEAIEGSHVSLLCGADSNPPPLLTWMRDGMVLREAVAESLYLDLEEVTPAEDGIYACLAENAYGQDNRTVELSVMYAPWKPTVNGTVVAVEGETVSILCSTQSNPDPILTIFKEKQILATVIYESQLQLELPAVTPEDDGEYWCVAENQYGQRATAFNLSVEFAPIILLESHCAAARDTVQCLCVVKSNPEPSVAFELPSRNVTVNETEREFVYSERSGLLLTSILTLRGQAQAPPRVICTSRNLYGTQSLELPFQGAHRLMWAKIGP
The assay can be described thus: direct binding ELISA on coated rat MAG-Fc (FIG. 6). The method, then: (§1) 96-well Nunc Maxisorp plates were coated overnight at 4° C. with rat MAG-Fc fusion protein (2.5 μg/ml; R&D Systems; Cat.No. 538-MG) in PBS. Plates were washed twice with PBS containing Tween20 (0.1% v/v; PBST) and blocked with PBS containing BSA (1% w/v) for 1 h at room temperature (RT). Purified humanised antibody was adjusted to a starting concentration of 5 μg/ml in blocking buffer and then serial diluted. Antibody samples were incubated 1 h at RT and plates then washed 3× with PBST. Secondary antibody (Goat anti-human light chain specific-peroxidase conjugate; Sigma A-7164) was added diluted 1/5000 in blocking buffer and incubated for 1 h at RT. Wells were washed three times as above and binding detected by adding substrate (OPD tablets dissolved according to instructions; Sigma P-9187). Colour development was monitored and the reaction stopped using 3M H₂SO₄. Colour development was read at 490 nm.
Background: ELISA stands for enzyme-linked immunosorbent assay.

The target of assay [2] is T1, rat MAG-Fc fusion protein (R&D systems; …). The assay can be described thus: direct binding ELISA on coated rat MAG-Fc, purified antibody. The method, then: as §1

B1: Humanised anti-MAG antibody BVh1/CVl1 (antibody, V domains shown)
VH: QVQLVQSGSELKKPGASVKVSCKASGYTFTNYGMNWVRQAPGQGLEWMGWINTYTGEPTYADDFTGRFVFSLDTSVSTAYLQISSLKAEDTAVYYCARNPINYYGINYEGYVMDYWGQGTLVTVSS
VL: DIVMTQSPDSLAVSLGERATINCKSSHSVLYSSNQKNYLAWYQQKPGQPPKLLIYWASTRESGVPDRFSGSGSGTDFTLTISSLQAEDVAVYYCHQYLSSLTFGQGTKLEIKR
notes: also called BVh1/CVI1
As to B1, the binding result in assay [1] is “binds”.

B2: Humanised anti-MAG antibody BVh3/CVl3 (antibody, IgG1, V domains shown)
VH: QVQLVQSGSELKKPGASVKVSCKASGYTFTNYGMNWVRQAPGQGLEWMGWINTYTGEPTYADDFTGRFVFSLDTSVSTAYLQISSLKAEDTATYFCARNPINYYGINYEGYVMDYWGQGTLVTVSS
VL: DIVMTQSPDSLAVSLGERATINCKSSHSVLYSSNQKNYLAWYQQKPGQPPKLLIYWASTRESGVPDRFSGSGSGTDFTLTISSLHTEDVAVYYCHQYLSSLTFGQGTKLEIKR
notes: also called BVh3/CVI3
On to B2, for which the binding result in assay [2] is recorded as “binds”.

(Values after patent US20070269427A1 (GlaxoSmithKline, published 2007).)
